These results are taken from US20170355763A1 (published 2017).

For the test, the target named is T1, purified, recombinant human IL-31 fused at the C-terminal with a peptide consisting of the sequence EYMPME … (human, UniProt Q6EBC2 27-164).
T1 construct: also called human IL-31-CEE; rIL31
T1 sequence: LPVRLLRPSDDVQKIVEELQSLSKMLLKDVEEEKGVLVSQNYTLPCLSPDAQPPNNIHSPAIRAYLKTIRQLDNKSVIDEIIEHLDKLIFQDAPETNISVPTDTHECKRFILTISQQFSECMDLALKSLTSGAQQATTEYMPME
The test can be described thus: capture ELISA: mAb of supernatant captured on anti-mouse IgG Fc, biotinylated IL-31-CEE. The procedure: These new supernatants were tested using the cell-based neutralization assay (serial 3-fold dilutions starting with neat supernatant and proceeding to a final 1:243 dilution) as well as a “capture” style ELISA assay similar to that used in the development of the rat anti-murine IL-31 mAbs with the following differences; 1) sheep anti-mouse IgG, Fc specific antibody (Jackson Immunoresearch) (1 ug/mL) as plate coating antibody, 2) plates blocked once with PBS-Tween+1% BSA for 1 hr, 3) a single titration of each supernatant added to wells (serial 3-fold dilutions starting with neat supernatant and proceeding to a final 1:2187 dilution), and 4) addition of biotinylated IL-31-CEE (3:1 molar ratio of biotin:protein), 200 ng/mL. This assay was felt to be more pertinent than the binding of antibody to plate bound IL-31-CEE as it assessed the ability of antibody to bind to IL-31-CEE in solution, a property essential to a good antibody for sandwich style ELISAs. It was in fact observed that a number of the master wells supernatants containing antibody that bound well to plate bound IL-31-CEE poorly recognized this molecule in solution.
To reduce the number of hybridomas going into further subcloning, two new assays were performed with exhausted supernatant from each of the selected first round clones. […]

B1: mouse anti-human IL-31 mAb 294.144.3.5 (antibody, mouse IgG1, V domains shown)
VL: ENVLTQSPAIMSASPGERVTMTCSASSSVSYMHWYQQKSSNSPKLWIYDTTKLASGVPGRFSGSGSGNSYSLTISSMEAEDVATYFCFQGSEHPLTFGGGTTLEI
VH: QVQLQQSGPELMKPGASVKISCKATGYTFSTYWIEWIKQRPGHGLEWIGEILPGRGTTNYNAKFQGKATFTAETSSNTAYMQLSSLTSEDSAVYYCTTESKLGDDDYWQGTTLTVSS
notes: Mouse IgG1; also called ATCC PTA-6873
Consider B1, for which the EC50 came out at 0.0134 mg/L.

For orientation: EC50 means the concentration that produces a half-maximal response.
